Earlier results, collected in patent US6368617B1, “Dietary supplement” (Reliv' International, Inc., priority 2001, dated 2002).
Where two headings read alike, the source gives them in different places.

| Substance | half-life (serum) | half-life (circulating) |
| --- | --- | --- |
| IGF-1: growth-promoting metabolite of hGH, somatomedin C, commercially known as Insulin-like Growth Factor type 1 | about 20 hours |  |
| Growth Hormone: endocrine hormone produced by the pituitary, also known as somatotropin |  | about 20 minutes |
